Measurements as given in PMC3170320, “Minimal Antizyme Peptide Fully Functioning in the Binding and Inhibition of Ornithine Decarboxylase and Antizyme Inhibitor” (PLoS ONE, 2011).

The substances below were run against human ornithine decarboxylase, wild type (human) (UniProt P11926).
human ornithine decarboxylase, wild type (human), sequence (P11926 whole entry): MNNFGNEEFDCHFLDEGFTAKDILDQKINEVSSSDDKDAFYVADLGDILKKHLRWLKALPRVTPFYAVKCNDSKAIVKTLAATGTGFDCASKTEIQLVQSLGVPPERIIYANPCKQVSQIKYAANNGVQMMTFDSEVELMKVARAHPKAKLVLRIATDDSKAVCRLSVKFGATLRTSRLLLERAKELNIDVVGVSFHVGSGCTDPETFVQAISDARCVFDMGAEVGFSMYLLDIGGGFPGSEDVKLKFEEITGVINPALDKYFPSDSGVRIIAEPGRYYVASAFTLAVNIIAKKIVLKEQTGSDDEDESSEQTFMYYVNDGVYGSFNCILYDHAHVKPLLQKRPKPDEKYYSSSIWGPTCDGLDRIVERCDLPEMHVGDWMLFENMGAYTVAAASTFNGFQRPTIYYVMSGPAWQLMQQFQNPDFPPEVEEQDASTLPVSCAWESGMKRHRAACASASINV

human antizyme peptide AZ_106-228, sequence (P54368 106-228): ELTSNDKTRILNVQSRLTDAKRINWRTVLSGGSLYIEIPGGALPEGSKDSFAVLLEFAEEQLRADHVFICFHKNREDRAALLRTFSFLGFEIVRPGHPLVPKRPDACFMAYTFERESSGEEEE
human antizyme peptide AZ_87-228, sequence (P54368 87-228): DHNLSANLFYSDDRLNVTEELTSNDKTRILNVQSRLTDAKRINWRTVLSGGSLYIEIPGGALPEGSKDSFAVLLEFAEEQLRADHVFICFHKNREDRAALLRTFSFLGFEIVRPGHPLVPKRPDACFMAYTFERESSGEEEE
human antizyme peptide AZ_95-169, sequence (P54368 95-169): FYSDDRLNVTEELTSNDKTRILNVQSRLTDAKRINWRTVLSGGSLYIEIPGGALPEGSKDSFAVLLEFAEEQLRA
human antizyme peptide AZ_114-228, sequence (P54368 114-228): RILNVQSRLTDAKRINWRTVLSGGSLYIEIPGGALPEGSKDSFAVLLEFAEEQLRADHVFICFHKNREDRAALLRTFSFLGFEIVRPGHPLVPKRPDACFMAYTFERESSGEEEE
human antizyme peptide AZ_100-135, sequence (P54368 100-135): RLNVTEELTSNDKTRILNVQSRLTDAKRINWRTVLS
human antizyme peptide AZ_126-228, sequence (P54368 126-228): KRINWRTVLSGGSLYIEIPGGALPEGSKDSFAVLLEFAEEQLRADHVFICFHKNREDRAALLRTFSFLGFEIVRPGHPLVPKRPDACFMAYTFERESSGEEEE
human antizyme peptide AZ_100-124, sequence (P54368 100-124): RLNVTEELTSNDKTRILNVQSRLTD

IC50 of inhibition of ODC enzyme activity (ODC 0.19 µM), without AZI | Substance
0.37 µM | human antizyme peptide AZ_95-169 (from UniProt P54368 95-169) (domain or fragment)
0.37 µM | human antizyme peptide AZ_106-228 (from UniProt P54368 106-228) (domain or fragment)
0.17 µM | human antizyme peptide AZ_87-228 (from UniProt P54368 87-228) (domain or fragment)
0.86 µM | human antizyme peptide AZ_100-135 (from UniProt P54368 100-135) (domain or fragment)
0.82 µM | human antizyme peptide AZ_100-124 (from UniProt P54368 100-124) (domain or fragment)
0.97 µM | human antizyme peptide AZ_114-228 (from UniProt P54368 114-228) (domain or fragment)
1.19 µM | human antizyme peptide AZ_126-228 (from UniProt P54368 126-228) (domain or fragment)
